For assay [1], the target named is T1, human calcitonin receptor (human, UniProt P30988 25-474).
T1 sequence (looked up): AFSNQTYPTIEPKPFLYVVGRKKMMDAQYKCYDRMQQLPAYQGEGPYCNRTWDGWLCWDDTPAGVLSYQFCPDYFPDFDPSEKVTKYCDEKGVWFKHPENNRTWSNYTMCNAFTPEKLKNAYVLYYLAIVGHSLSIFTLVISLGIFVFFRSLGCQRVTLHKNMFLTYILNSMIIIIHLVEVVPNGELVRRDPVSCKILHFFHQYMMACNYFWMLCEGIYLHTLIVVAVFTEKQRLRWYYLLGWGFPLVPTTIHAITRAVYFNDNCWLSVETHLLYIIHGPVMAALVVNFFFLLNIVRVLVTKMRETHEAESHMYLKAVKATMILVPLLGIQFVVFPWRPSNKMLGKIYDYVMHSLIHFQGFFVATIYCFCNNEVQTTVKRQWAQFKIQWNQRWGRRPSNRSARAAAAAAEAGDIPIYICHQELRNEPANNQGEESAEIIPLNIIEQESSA
Put plainly: cell-based or functional assay.

In assay [2] the target is T2, human amylin receptor (amylin 3(a) receptor: human calcitonin receptor co-expressed with RAMP-3) (human, UniProt P30988 25-474; O60896 24-148, limits assumed).
T2 sequence (looked up) 1: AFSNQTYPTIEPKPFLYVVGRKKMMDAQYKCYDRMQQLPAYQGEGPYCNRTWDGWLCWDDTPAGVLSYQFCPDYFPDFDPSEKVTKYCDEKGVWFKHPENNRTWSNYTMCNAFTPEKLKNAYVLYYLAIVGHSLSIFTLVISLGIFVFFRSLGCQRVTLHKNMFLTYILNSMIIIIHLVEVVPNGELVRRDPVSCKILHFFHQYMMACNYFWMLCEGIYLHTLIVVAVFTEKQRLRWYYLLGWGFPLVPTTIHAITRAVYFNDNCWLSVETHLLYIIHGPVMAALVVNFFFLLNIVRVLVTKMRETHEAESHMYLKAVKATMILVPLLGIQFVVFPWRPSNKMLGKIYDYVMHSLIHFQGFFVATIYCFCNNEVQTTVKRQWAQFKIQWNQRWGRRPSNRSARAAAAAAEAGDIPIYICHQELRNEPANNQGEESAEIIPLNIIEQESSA
T2 sequence (looked up) 2: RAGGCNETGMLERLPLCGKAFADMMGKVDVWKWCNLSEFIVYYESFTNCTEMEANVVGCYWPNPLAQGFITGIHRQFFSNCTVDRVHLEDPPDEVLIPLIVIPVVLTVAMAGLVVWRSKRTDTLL
Put plainly: cell-based or functional assay.

The target in another assay is T3, rat calcitonin receptor (rat, UniProt P32214 25-516).
T3 construct: whole, on cells; Used as membranes prepared from BHK tk'ts 13 cells transiently transfected with the rat calcitonin receptor (Assay VIII); also called rCTR; rat calcitonin (a) receptor
T3 sequence (looked up): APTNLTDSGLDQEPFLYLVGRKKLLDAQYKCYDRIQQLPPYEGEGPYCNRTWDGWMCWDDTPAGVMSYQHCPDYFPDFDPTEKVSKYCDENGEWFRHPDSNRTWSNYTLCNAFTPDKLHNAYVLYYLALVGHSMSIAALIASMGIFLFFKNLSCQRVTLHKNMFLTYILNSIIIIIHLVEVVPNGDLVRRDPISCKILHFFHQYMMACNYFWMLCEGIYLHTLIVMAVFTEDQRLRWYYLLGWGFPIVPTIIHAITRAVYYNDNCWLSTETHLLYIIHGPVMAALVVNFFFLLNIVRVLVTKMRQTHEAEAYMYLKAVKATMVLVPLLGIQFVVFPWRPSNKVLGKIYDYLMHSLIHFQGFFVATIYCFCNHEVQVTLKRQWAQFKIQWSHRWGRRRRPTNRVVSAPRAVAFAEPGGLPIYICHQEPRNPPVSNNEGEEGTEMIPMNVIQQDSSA
Put plainly: SPA competition with 125I-calcitonin, membranes of BHK cells with rat CTR (Assay VIII).

Assay [3] has as its target T4, rat amylin receptor (rat calcitonin receptor + rat RAMP 3) (rat, UniProt P32214 25-516; Q9JJ73 23-147).
T4 construct: whole, on cells; Used as membranes prepared from BHK tk'ts 13 cells transiently transfected with rat calcitonin receptor and rat RAMP 3 (Assay VI); also called rAmylin-R; rat amylin 3(a) receptor
T4 sequence (looked up) 1: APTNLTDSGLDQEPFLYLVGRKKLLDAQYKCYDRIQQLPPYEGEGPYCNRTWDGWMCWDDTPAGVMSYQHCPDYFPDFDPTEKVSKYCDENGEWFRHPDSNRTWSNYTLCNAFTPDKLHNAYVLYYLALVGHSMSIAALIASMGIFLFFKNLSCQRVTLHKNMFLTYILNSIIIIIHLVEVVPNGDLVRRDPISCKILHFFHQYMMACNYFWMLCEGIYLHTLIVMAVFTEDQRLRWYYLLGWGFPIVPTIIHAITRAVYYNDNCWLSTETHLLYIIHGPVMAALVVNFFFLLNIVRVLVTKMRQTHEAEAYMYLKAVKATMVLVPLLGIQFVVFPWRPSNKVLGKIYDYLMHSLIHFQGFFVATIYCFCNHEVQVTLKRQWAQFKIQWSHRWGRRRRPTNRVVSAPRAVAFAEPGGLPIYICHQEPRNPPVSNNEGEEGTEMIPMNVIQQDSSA
T4 sequence (looked up) 2: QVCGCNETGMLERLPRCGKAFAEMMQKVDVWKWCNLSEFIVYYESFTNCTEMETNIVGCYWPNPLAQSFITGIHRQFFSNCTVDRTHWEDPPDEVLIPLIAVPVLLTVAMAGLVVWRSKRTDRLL
Put plainly: SPA competition with 125I-rat amylin, membranes of BHK cells with rat CTR + rat RAMP3 (Assay VI). As for the experimental part: The binding assay was performed using scintillation proximity assay (SPA) beads (RPNQ0001) from PerkinElmer and cell membranes from the Amylin 3(a)/CRE-luc cells (as described in Assay (II)) were used. Membranes were prepared in the following way; the cells were rinsed with PBS and incubated with Versene for approximately 5 min before harvesting. The cells were flushed with PBS and the cell-suspension was centrifuged for 5 min at 1000 rpm. Cells were homogenized (ultrathurrax) in a buffer containing 20 mM Na-HEPES and 10 mM EDTA (pH 7.4) and centrifuged at 20.000 rpm for 15 min. The resulting pellet was resuspended, homogenized and centrifuged (20.000 rpm, 15 min) in a buffer containing 20 mM Na-HEPES and 0.1 mM EDTA (pH 7.4, buffer 2). The resulting pellet was resuspended in buffer 2 and protein concentration was measured (BCA protein Assay, Pierce). The homogenate was kept cold during the whole procedure. The membranes were kept at −80° C. until use. The assay was performed in a 384 well Optiplate (PerkinElmer) in a total volume of 40 ul. Membranes were mixed with SPA beads. Final concentration of membranes 35 ng/μL final and SPA beads was 0.05 mg/well. Test-compounds were dissolved in DMSO and further diluted in assay buffer (50 mM Hepes, pH 7.4, 1 mM CaCl2, 5 mM MgCl₂, 0.1% OA and 0.02% Tween20). […] The final mixture was incubated with shaking at 400 rpm for 120 min at 25° C. prior to centrifugation (1500 rpm, 10 min). Samples were analyzed on TopCounter™ (Packard). The IC₅₀ was calculated using (one site binding competition analysis) GraphPad Prism5 as a measure of receptor affinity.
Cells were grown in DMEM with 10% FBS and 1% Pen/Strep. Approximately 48 hours after transfection, the cells were harvested and membranes were prepared.

Numbered stars: 1 amine (or outer) side, 2 acyl side, 3 side chain; on linkers, the order of the positions; unused ones are H or OH. Bridge positions count the residues as written; N and C are the ends. Side chains are listed from the residue outwards. Ends that are not written are not given here. * marks the point of attachment. C20 diacid = O=C(O)CCCCCCCCCCCCCCCCCCC(=O)*; γGlu = O=C(O)[C@H](CCC(=O)[*:2])N[*:1]

B1: N^ε1-[(4S)-4-carboxy-4-[[(4S)-4-carboxy-4-(19-carboxynonadecanoylamino)butanoyl]amino]butanoyl]-[His14,Arg17,Pro21,Pro27]-h-amylin (peptide)
peptide: K([γGlu-γGlu-C20 diacid])CNTATCATQRLAHFLRHSSPNFGAIPSSTNVGSNTY-NH2
modifications: disulfide 2-7; N-terminus assumed
SMILES: CC[C@H](C)[C@H](NC(=O)[C@H](C)NC(=O)CNC(=O)[C@H](Cc1ccccc1)NC(=O)[C@H](CC(N)=O)NC(=O)[C@@H]1CCCN1C(=O)[C@H](CO)NC(=O)[C@H](CO)NC(=O)[C@H](Cc1c[nH]cn1)NC(=O)[C@H](CCCNC(=N)N)NC(=O)[C@H](CC(C)C)NC(=O)[C@H](Cc1ccccc1)NC(=O)[C@H](Cc1c[nH]cn1)NC(=O)[C@H](C)NC(=O)[C@H](CC(C)C)NC(=O)[C@H](CCCNC(=N)N)NC(=O)[C@H](CCC(N)=O)NC(=O)[C@@H](NC(=O)[C@H](C)NC(=O)[C@@H]1CSSC[C@H](NC(=O)[C@@H](N)CCCCNC(=O)CC[C@H](NC(=O)CC[C@H](NC(=O)CCCCCCCCCCCCCCCCCCC(=O)O)C(=O)O)C(=O)O)C(=O)N[C@@H](CC(N)=O)C(=O)N[C@@H]([C@@H](C)O)C(=O)N[C@@H](C)C(=O)N[C@@H]([C@@H](C)O)C(=O)N1)[C@@H](C)O)C(=O)N1CCC[C@H]1C(=O)N[C@@H](CO)C(=O)N[C@@H](CO)C(=O)N[C@H](C(=O)N[C@@H](CC(N)=O)C(=O)N[C@H](C(=O)NCC(=O)N[C@@H](CO)C(=O)N[C@@H](CC(N)=O)C(=O)N[C@H](C(=O)N[C@@H](Cc1ccc(O)cc1)C(N)=O)[C@@H](C)O)C(C)C)[C@@H](C)O
notes: also called compound 92
On to B1, for which the “hCTR funct. EC50” value in assay [1] was 2380 pM. Besides, in assay [2], the “Ratio hCT/hAmylin funct.” value was determined as 28 and the “hAmylin-R funct. EC50” value amounted to 85 pM.

B2: N^ε1-[(4S)-4-carboxy-4-[[(4S)-4-carboxy-4-(19-carboxynonadecanoylamino)butanoyl]amino]butanoyl]-[Asp14,Arg17,Pro21,Pro27,Arg35]-h-amylin (peptide)
peptide: K([γGlu-γGlu-C20 diacid])CNTATCATQRLADFLRHSSPNFGAIPSSTNVGSRTY-NH2
modifications: disulfide 2-7; N-terminus assumed
SMILES: CC[C@H](C)[C@H](NC(=O)[C@H](C)NC(=O)CNC(=O)[C@H](Cc1ccccc1)NC(=O)[C@H](CC(N)=O)NC(=O)[C@@H]1CCCN1C(=O)[C@H](CO)NC(=O)[C@H](CO)NC(=O)[C@H](Cc1c[nH]cn1)NC(=O)[C@H](CCCNC(=N)N)NC(=O)[C@H](CC(C)C)NC(=O)[C@H](Cc1ccccc1)NC(=O)[C@H](CC(=O)O)NC(=O)[C@H](C)NC(=O)[C@H](CC(C)C)NC(=O)[C@H](CCCNC(=N)N)NC(=O)[C@H](CCC(N)=O)NC(=O)[C@@H](NC(=O)[C@H](C)NC(=O)[C@@H]1CSSC[C@H](NC(=O)[C@@H](N)CCCCNC(=O)CC[C@H](NC(=O)CC[C@H](NC(=O)CCCCCCCCCCCCCCCCCCC(=O)O)C(=O)O)C(=O)O)C(=O)N[C@@H](CC(N)=O)C(=O)N[C@@H]([C@@H](C)O)C(=O)N[C@@H](C)C(=O)N[C@@H]([C@@H](C)O)C(=O)N1)[C@@H](C)O)C(=O)N1CCC[C@H]1C(=O)N[C@@H](CO)C(=O)N[C@@H](CO)C(=O)N[C@H](C(=O)N[C@@H](CC(N)=O)C(=O)N[C@H](C(=O)NCC(=O)N[C@@H](CO)C(=O)N[C@@H](CCCNC(=N)N)C(=O)N[C@H](C(=O)N[C@@H](Cc1ccc(O)cc1)C(N)=O)[C@@H](C)O)C(C)C)[C@@H](C)O
notes: Analogue of human amylin; also called compound 52
On to B2, for which the IC50 was 159 nM with rat calcitonin receptor and 0.335 nM in assay [3].

By IC50 is commonly meant the midpoint of a concentration-inhibition curve.
